Consider 18 sequences from the DeepSol protein solubility set.

The nature of this data set: soluble on expression in E. coli; label from the status in PepcDB or PDB records.
With “MGSDKIHHHHHHMTNWLPDLTGGAGPLYQRLADSVEAGIDQGVIGAGTKLPPQRDLAYDIGTTVGTVGRAYQLLRERGLVSGEVGRGTYVLGRRADGVKPEAPDVSVEGTRYVDAPQDKLRFDSTAAPDVGQGAVVADVLSRTAQDHPHEISSYTRDFPGRWYEAGARWLARNSFRPAADGIVPTLGTHAAVMAAIAALTTPGDYVAFEHLTYSQISRSAGLIGRRTALVASDDEGLDPADFERVCAQKHPRMIFLMPTAQNPTLTTLSAGRREAIARVAREYNVILIEDDLYGHLTDDPTPLLAEYAPERTIVAGGLSKSVAAGIRGGWLSCPPAYRHRIRVAHKMMTGGMPFLLAEVNTRLVLSGQASDIRKRCIAEISARIAIVRETLAGFAFKSHDKVPFVWLTLPDPWLSGTFKNACLEHGVLIDDEDEFKAGRSEQVFHGVRFGTSQPRQRGDVANGVAVIRRLLDEGRAGYDSFS”, the “soluble on expression in E. coli” value is reported as “not soluble”.
For the sequence “MAHHHHHHMLRRLVSCASPLRLRGCGAAVVLGNGRFASTANASAAPPITTTKAPTYGTVPDIPNLNFLSSPDNLLNTVDGTVDVCEALLKEIPKAKTPQAKHDLIDSTSNVLCLLLDPCEFVRQIHPDENYKRGASLAFQKGYEYMCEVNSRRDLYDVIKELDSQEGRKGLTPESSRTLCS”, the “soluble on expression in E. coli” value is listed as “not soluble”.
The result for “MDASYSSSRPKKLNYTSYTSLKSVLKFLSVKKREQIHIHIPELRSVNALLPYAHEEVILDKFEIMIQNRSYLFKKLAEKAPKPEGVARRRPEYEYAEYNRLLVMDLGPPSLFDMNDLHHLWRPMGNQGPDRLSFGDLDSLEKRRLRFRRENRLQDSSEHGRTGNCEITISEEDGTAITVTKEIPVDIAYEKIFDAFFSNGSRIKLLKVQSFPDFLMRKDLLTLKVREIDCSSTASIDILELAPFLDHSSLKKLTLNVTNTNVDLLMLPLVQNCPVLRIVEAGTFLSRMLKTTLLSALQNQKLEIFPDIVIIESFPQLVQSWATSSRPIGSLVQVGIREDYKEVLDILDFLKESHGAHPAIIKKLENTDFSNGLSMLIDGDLELAIYGGGKISEEGLTRPQPCKWSLCMEVMKRGDTIPR” reads “not soluble”.
The result for “ICMNVENKVTHKPLEFNYTDKYCGNVKNLISCKLYQHALTLIDSFRKDKTI” reads “not soluble”.
The result for “MATQTAVTATTVPQGSPSVTGSASQGGILNSARQFFSLAAPKVEKDKEFSFRFLTSPLRSKPAATVNADNFYMYACGSINMP” reads “not soluble”; that for “MSVMTLKKQTYRVIAVINQGQELLVRAHEPETADIEIIPVTTVVQVTEQNSTGDAAVALDTVTVVGERYVDDIVATLTTLRVGMAVLLQRESGNQYDDNAISVWTLQHAKLGYIARYQNQPYATLMDQGQRLYGIVTVLDQQKQHLELMLWRTTAVPSPIEALQIRQRLAKPRTNLGAVPTHSLQTPLGTIVMMCNGHPIKYQQVPLSPWLTPADELHVTKRYLLTPDWSQVPPDSLITCQVTAKADVVQRWQNEHISAAVLTNASSFYVVGISAQTKTGLNDNLVDDAAQPAVIYRVGQVSAHMQAGFMVSWAPFGDPRVQPALKLALHFSSQPLVPYHPVTPSRTNATFTQQELAALLVSALPNYQGGQRLEPSVTTITVEKLRQTLGDQTYHALANYQRHVQLVAGSTEGVNETLLQALIHAVTYHELTTMHYYQPTVGMVDQVIYPIQLFSTTTKDEDDAQLVGCLALYNYETFEIQQVPLTAIARIAIIADPEHPQTTPETESPDWLRIFLHGWNDDFLEHHHHHH”, “soluble”.
With “MTARIYKPAKNAMQSGTAKTREWQLDYEPETPRTIEPLMGWTSSSDMQQQVSLRFHTRDEAVAYCEREGIPYQLIEPKEPVRRRAAYADNFAFRRPEPWTH”, the “soluble on expression in E. coli” value is reported as “soluble”.
For “MGSDKIHHHHHHMEMIMRPDRSLFIVEDDATFAKTLKRSFEKRDYDVVVCHGREDLLGALETAVPAYAVVDLKLGARGSGLECVKLLSARDTSMRIVVLTGFASIATAVEAIKLGACHYLAKPANTDDIEAAFGRAEGDVSVSLSSRPTSIKNLEWERIHETLVETGFNISETARRLGLHRRTLARKLEKRVVR” the value was “not soluble”; for “MGSDKIHHHHHHMRHAYRQFGPGTLYTVRLLRALDYLWRHLDEPLLLDRLAEEACFSRFHFHRLYRNLMGETVMESRQRMLLHRAAGELGRADRPLASVAVRAGFSSSAAFIRAFAGRYGETPGRYRQRRLMFLNQRERTMRQVEIVERDAVKVLMRHHRGPYMEIGKAFDALRAVQGPQQGVGAPSRSFGLYLDDQAQTPAADCRSIACATVPAFMEGKAMDGFEWGSIPAGRYAAVLHTGPYSELGECWDWLYRHWLPASGEMPGDTPCVEEYLNAPYDTPPAELKTLLLLSLA”, “not soluble”; for “MAKTITKDSFFHSRLQQFVANSLFPAGAGDWYKNKGYGKKGEVDDEAPFRDFVEKQKTDKKSHYYKEFQGLDLSLKKVKTKLVSGESCQLEVMKCQPESNEPKKPGTGKHIVYFPGANTYYQACFRDISTACKETGATVHAFNFPGTGLSSGKVREANDLINAGISVVSSLIKQGVHPDDIILQGDCYGASIALEVKKQLEDQADIKVRAIMNNVFKSFKAAVCDMITQSPWLPNILKSIVKRLLEFTGWHVTPGKKYKHADPYQCHIQHLGDQTLESSTLSGKVSKYHHEIQTGQTKSQKRAPITDTCPEEYRKDRDELDRKHYVRVKESAKERLASKFGVDKFGRVNAHFADLCELEMLDGQSVYQGFVNDYIARSNAYIEKHPQKGIKEVQDDLRKLHYLQPADSIEITEDEAQDFNTVVDLITEEQQLRHDRFNDNTIGKSISM”, “not soluble”.
The result for “MYSKILGTGSYLPSQVRTNADLEKMVETSDEWIVARTGIRERRIAADNETVADMAFFAAQNAINMAGIDKHDIDMIIVATTSASHTFPSAACQVQGKLGIKGCPAFDLAAACSGFMYALSIADQHVKSGMCKHVLVIGADALSKTCDPTDRSTIILFGDGAGAVVVGASNEPGILSTHIHADGEFGDLLSLEVPVRGGDSDKWLHMAGNEVFKVAVTQLSKLVVDTLKANNMHKSELDWLVPHQANYRIISATAKKLSMSLDQVVITLDRHGNTSAATVPTALDEAVRDGRIQRGQMLLLEAFGGGFTWGSALVKF” reads “not soluble”; that for “MIASLDELYHSELFFLPVMDENARLVGLEIIATFAAEDGAVRMPTELVAPRLSVEEQYCLFVEKLALLETCQHFFIQHKLIAWLNLPPAISDLLLLDSELFSRAARFPFLELAINENYPGLNQGKNNETLANLAMHFPLMLANFGAGEASTKAIFDGLFKRVMLDKNFIQQRAEMISFEPFMHAIVAQISSSCESLMIAGIDTEAMFARAAPLGFSAFQGGLWPPVPVSQLIKLVQR”, “not soluble”.
“GMAYEQFAYVYDELMQDVPYPEWVAWVLEQVEPGKRIADIGCGTGTATLLLADHYEVTGVDLSEEMLEIAQEKAMETNRHVDFWVQDMRELELPEPVDAITILCDSLNYLQTEADVKQTFDSAARLLTDGGKLLFDVHSPYKMETLFNGKTYATHAEQSSYIWFADPGEEPLSVVHELTFFIEGEDGRYDRVDETHHQRTYPPEQYITWLREAGFRVCAVTGDFKSDAPTETAERIFFVAEKI”: the “soluble on expression in E. coli” value is “soluble”.
The result for “MASTPRIVIIGAGIVGTNLADELVTRGWNNITVLDQGPLNMPGGSTSHAPGLVFQTNPSKTMASFAKYTVEKLLSLTEDGVSCFNQVGGLEVATTETRLADLKRKLGYAAAWGIEGRLLSPAECQELYPLLDGENILGGLHVPSDGLASAARAVQLLIKRTESAGVTYRGSTTVTGIEQSGGRVTGVQTADGVIPADIVVSCAGFWGAKIGAMIGMAVPLLPLAHQYVKTTPVPAQQGRNDQPNGARLPILRHQDQDLYYREHGDRYGIGSYAHRPMPVDVDTLGAYAPETVSEHHMPSRLDFTLEDFLPAWEATKQLLPALADSEIEDGFNGIFSFTPDGGPLLGESKELDGFYVAEAVWVTHSAGVAKAMAELLTTGRSETDLGECDITRFEDVQLTPEYVSETSQQNFVEIYDVLHPLQPRLSPRNLRVSPFHARHKELGAFFLEAGGWERPYWFEANAALLKEMPAEWLPPARDAWSGMFSSPIAAAEAWKTRTAVAMYDMTPLKRLEVSGPGALKLLQELTTADLAKKPGAVTYTLLLDHAGGVRSDITVARLSEDTFQLGANGNIDTAYFERAARHQTQSGSATDWVQVRDTTGGTCCIGLWGPLARDLVSKVSDDDFTNDGLKYFRAKNVVIGGIPVTAMRLSYVGELGWELYTSADNGQRLWDALWQAGQPFGVIAAGRAAFSSLRLEKGYRSWGTDMTTEHDPFEAGLGFAVKMAKESFIGKGALEGRTEEASARRLRCLTIDDGRSIVLGKEPVFYKEQAVGYVTSAAYGYTVAKPIAYSYLPGTVSVGDSVDIEYFGRRITATVTEDPLYDPKMTRLRG” reads “soluble”; that for “MGSDKIHHHHHHMIQTPVIVTFANQKGGVGKTTLCVTFANYLVAKGVRVLVIDCDFQHSIMKCRKADIKKYGEEQLPYEVWSYEPNNKVEMTSLVEKLHNDPEIDVVLIDSPGSLKAEGLVPIFVNSDIIVVPFHYDLVTIPSTASFLLFLDRLRQAVGERMKAQLFIIPNLNDNRVGKRSELILWDNTRETFSNYGYVTGKIPRRADMERFSTIAALDMQYRYVSSVFDKIYFSIFDKTGPIREMELSGIQLTENLYPKSGKKKYQAETSTHIALDEAEDEEQENNSEHQHNQ”, “not soluble”; that for “MRHRVKKKHFDRTKEQRLALYRSLARALIFDERIETTVERAKALRSFIEPLVELAKEGTLHARRQALSRLPDKPAIKKLFEDIAPRFEGRNGGYVRIIKLPYRRRGDGAEMAIIEWVELEHHHHHH”, “not soluble”.
For “MSLNANVVIAGPGTGKTTSISQKYLELVQSGVDPNDILCITFTNKAAENMRSRIIKALERSGTQIDLSVINVYTFHSFANSAIRRYGYRGIVNQNFLRKIIFDYLIRNSVFNYEREYLISRIVPQLENIIRYLGSFGIDRIENPEETAASLREIFKKRREEKKIKEDLEEITAIFIHLSKIMDEYRNAKEARGVIDYNDMIIKFLELEKKPHFKYVLVDELQDASDLQARLIKSVADDIYAVGDRKQAIFGFQGGGFGNFSNHFPDAHVNYLLTDHRNSEAVLNYAREFFLKNTKYPDQYRTELDQLKASKARGGSVEVVSGEEEAVLDLLKRFPEGKVGILARRNDQVIKISEILDSNGMRYASSALSAASDRAKKDVIAFLKMIIYGDMQSVIDALFTPFSGLQISEAYDIKESLISGNTSLQNYDLLNNLRRTYSAPGINGLIDMFEKLIIPIALAFDQRYFLTVERIYKNLREYLDFYGNEDRSDLINYLEICDDEVQEIDADERISVLTVHKAKGLEFDHVIYLPKAKKDEKMSAVDLVAEQMIRLKTEGHHHHHH” the value was “soluble”; for “SDSTAGTDAVAVGGTFQFHSPDGKMEIFYDEADRQQLPDIGGDSLMEEGTQINLSDFENQVVILNAWGQWCAPCRSESDDLQIIHEELQAAGNGDTPGGTVLGINVRDYSRDIAQDFVTDNGLDYPSIYDPPFMTAASLGGVPASVIPTTIVLDKQHRPAAVFLREVTSKDVLDVALPLVDEA”, “soluble”.
